In series [1] the target is T1, MGME1 (Homo sapiens, UniProt Q9BQP7 21-344).
T1 sequence: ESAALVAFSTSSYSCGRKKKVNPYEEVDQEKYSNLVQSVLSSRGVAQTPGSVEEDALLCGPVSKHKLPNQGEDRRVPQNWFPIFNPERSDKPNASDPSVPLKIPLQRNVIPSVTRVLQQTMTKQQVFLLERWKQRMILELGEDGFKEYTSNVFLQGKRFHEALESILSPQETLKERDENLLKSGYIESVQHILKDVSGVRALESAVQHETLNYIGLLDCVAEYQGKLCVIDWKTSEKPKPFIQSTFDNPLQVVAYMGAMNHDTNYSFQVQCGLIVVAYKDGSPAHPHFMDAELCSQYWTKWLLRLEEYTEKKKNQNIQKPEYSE
The series can be described thus: fluorescence polarization; 10 mM EDTA; FP: 2 nM FAM-ssDNA, 20 mM Hepes pH 8.0 (at 37 C), 100 mM NaCl, 0.1 mg/ml BSA, 1 mM DTT, 10 mM EDTA, mixed at room temperature, 15 min; EMSA: 1 uM ssDNA, 20 mM Hepes pH 8.0, 100 mM NaCl, 1 mM DTT, 10 mM EDTA, room temperature 15 min, gel 0.35x TBE at 4 C. As to conditions: protein: recombinant, tags: His-SUMO tag removed by Ulp1, single strand. A general note: Fluorescence polarisation rises when a labelled molecule tumbles more slowly, as on binding a larger partner.

Series [2] deals with T1, MGME1. Briefly: competition (fluorescence polarization); 10 mM EDTA; 140 nM MGME1 with 2 nM T20(5') preformed; FP: 2 nM FAM-ssDNA, 20 mM Hepes pH 8.0 (at 37 C), 100 mM NaCl, 0.1 mg/ml BSA, 1 mM DTT, 10 mM EDTA, mixed at room temperature, 15 min; EMSA: 1 uM ssDNA, 20 mM Hepes pH 8.0, 100 mM NaCl, 1 mM DTT, 10 mM EDTA, room temperature 15 min, gel 0.35x TBE at 4 C. As to conditions: protein: recombinant; tags: His-SUMO tag removed by Ulp1; single strand. In general terms: In EMSA bound probe runs differently from free probe, usually more slowly.

B1: T10(5') (ssDNA)
DNA: TTTTTTTTTT
modifications: 5' phosphate linkage of the FAM label
Usually Kd stands for a measure of binding affinity in units of concentration. In the case of B1, the equilibrium dissociation constant (Kd) in series [1] (label: 5'-6FAM) worked out at 600 ± 150 nM.

B2: A20(5') (ssDNA)
DNA: AAAAAAAAAAAAAAAAAAAA
modifications: 5' phosphate linkage of the FAM label
B2: in series [1] (label: 5'-6FAM), the Kd was found to be 1300 ± 170 nM.

B3: T10(3')-5'p (ssDNA)
DNA: TTTTTTTTTT
modifications: 5'-phosphate
For B3, the dissociation constant Kd in series [1] (label: 3'-6FAM) was 1600 ± 75 nM.

B4: T20(5') (ssDNA)
DNA: TTTTTTTTTTTTTTTTTTTT
modifications: 5' phosphate linkage of the FAM label
For the molecule B4, the Kd in series [1] (label: 5'-6FAM) came to 240 ± 36 nM.

B5: T20(3') (ssDNA)
DNA: TTTTTTTTTTTTTTTTTTTT
As for B5, the dissociation constant (Kd) in series [1] (label: 3'-6FAM) is 330 ± 83 nM.

B6: T20(3')-5'p (ssDNA)
DNA: TTTTTTTTTTTTTTTTTTTT
modifications: 5'-phosphate
Regarding B6, in series [1] (label: 3'-6FAM), the Kd was 180 ± 5 nM.

B7: T10(3') (ssDNA)
DNA: TTTTTTTTTT
Turning to B7, the Kd in series [1] (label: 3'-6FAM) worked out at 7500 ± 890 nM.

B8: T10(3')-5'dSp (ssDNA)
DNA: TTTTTTTTTT
modifications: 5'-phosphate-tetrahydrofuran (abasic) before T10
As for B8, the equilibrium dissociation constant (Kd) in series [1] (label: 3'-6FAM) worked out at 340 ± 24 nM.

B9: T20 (unlabeled) (ssDNA)
DNA: TTTTTTTTTTTTTTTTTTTT
Regarding B9, the equilibrium dissociation constant (Kd) in series [2] came to 250 ± 33 nM.

(Values after publication PMC9460513, “The 5′-phosphate enhances the DNA-binding and exonuclease activities of human mitochondrial genome maintenance exonuclease 1 (MGME1)”.)
